# Molecular target: Purified recombinant HIV gp120, biotinylated (HIV) (UniProt P04578)
# Assay: SPR
substance,measurement,value
soluble recombinant human DC-SIGN extracellular domain (from UniProt Q9NNX6 59-404) (domain or fragment),percent less binding in 20 mM glucose than in 5 mM glucose,33%

# From article PMC3088832
